How the values were obtained:
[1] = substrate: Nc1ccc(C(=O)NCC(=O)O)cc1; assay: TP_TRANSPORTER: uptake in membrane vesicles from MRP2-expressing HEK cells; format: functional, cell membranes, HEK293, Membrane vesicle
[2] = substrate: Nc1ccc(C(=O)NCC(=O)O)cc1; assay: TP_TRANSPORTER: uptake in membrane vesicle from MRP1-expressing HeLa cells; format: functional, cell membranes

| Protein | Km [1] [µM] | Km [2] [µM] |
| --- | --- | --- |
| ATP-binding cassette sub-family C member 2 (Homo sapiens) (protein) MLEKFCNSTFWNSSFLDSPEADLPLCFEQTVLVWIPLGYLWLLAPWQLLHVYKSRTKRSSTTKLYLAKQVFVGFLLILAAIELALVLTEDSGQATVPAVRYTNPSLYLGTWLLVLLIQYSRQWCVQKNSWFLSLFWILSILCGTFQFQTLIRTLLQGDNSNLAYSCLFFISYGFQILILIFSAFSENNESSNNPSSIASFLSSITYSWYDSIILKGYKRPLTLEDVWEVDEEMKTKTLVSKFETHMKRELQKARRALQRRQEKSSQQNSGARLPGLNKNQSQSQDALVLEDVEKKKKKSGTKKDVPKSWLMKALFKTFYMVLLKSFLLKLVNDIFTFVSPQLLKLLISFASDRDTYLWIGYLCAILLFTAALIQSFCLQCYFQLCFKLGVKVRTAIMASVYKKALTLSNLARKEYTVGETVNLMSVDAQKLMDVTNFMHMLWSSVLQIVLSIFFLWRELGPSVLAGVGVMVLVIPINAILSTKSKTIQVKNMKNKDKRLKIMNEILSGIKILKYFAWEPSFRDQVQNLRKKELKNLLAFSQLQCVVIFVFQLTPVLVSVVTFSVYVLVDSNNILDAQKAFTSITLFNILRFPLSMLPMMISSMLQASVSTERLEKYLGGDDLDTSAIRHDCNFDKAMQFSEASFTWEHDSEATVRDVNLDIMAGQLVAVIGPVGSGKSSLISAMLGEMENVHGHITIKGTTAYVPQQSWIQNGTIKDNILFGTEFNEKRYQQVLEACALLPDLEMLPGGDLAEIGEKGINLSGGQKQRISLARATYQNLDIYLLDDPLSAVDAHVGKHIFNKVLGPNGLLKGKTRLLVTHSMHFLPQVDEIVVLGNGTIVEKGSYSALLAKKGEFAKNLKTFLRHTGPEEEATVHDGSEEEDDDYGLISSVEEIPEDAASITMRRENSFRRTLSRSSRSNGRHLKSLRNSLKTRNVNSLKEDEELVKGQKLIKKEFIETGKVKFSIYLEYLQAIGLFSIFFIILAFVMNSVAFIGSNLWLSAWTSDSKIFNSTDYPASQRDMRVGVYGALGLAQGIFVFIAHFWSAFGFVHASNILHKQLLNNILRAPMRFFDTTPTGRIVNRFAGDISTVDDTLPQSLRSWITCFLGIISTLVMICMATPVFTIIVIPLGIIYVSVQMFYVSTSRQLRRLDSVTRSPIYSHFSETVSGLPVIRAFEHQQRFLKHNEVRIDTNQKCVFSWITSNRWLAIRLELVGNLTVFFSALMMVIYRDTLSGDTVGFVLSNALNITQTLNWLVRMTSEIETNIVAVERITEYTKVENEAPWVTDKRPPPDWPSKGKIQFNNYQVRYRPELDLVLRGITCDIGSMEKIGVVGRTGAGKSSLTNCLFRILEAAGGQIIIDGVDIASIGLHDLREKLTIIPQDPILFSGSLRMNLDPFNNYSDEEIWKALELAHLKSFVASLQLGLSHEVTEAGGNLSIGQRQLLCLGRALLRKSKILVLDEATAAVDLETDNLIQTTIQNEFAHCTVITIAHRLHTIMDSDKVMVLDNGKIIECGSPEELLQIPGPFYFMAKEAGIENVNSTKF | 880 |  |
| Multidrug resistance-associated protein 1 (Homo sapiens) (protein) MALRGFCSADGSDPLWDWNVTWNTSNPDFTKCFQNTVLVWVPCFYLWACFPFYFLYLSRHDRGYIQMTPLNKTKTALGFLLWIVCWADLFYSFWERSRGIFLAPVFLVSPTLLGITMLLATFLIQLERRKGVQSSGIMLTFWLVALVCALAILRSKIMTALKEDAQVDLFRDITFYVYFSLLLIQLVLSCFSDRSPLFSETIHDPNPCPESSASFLSRITFWWITGLIVRGYRQPLEGSDLWSLNKEDTSEQVVPVLVKNWKKECAKTRKQPVKVVYSSKDPAQPKESSKVDANEEVEALIVKSPQKEWNPSLFKVLYKTFGPYFLMSFFFKAIHDLMMFSGPQILKLLIKFVNDTKAPDWQGYFYTVLLFVTACLQTLVLHQYFHICFVSGMRIKTAVIGAVYRKALVITNSARKSSTVGEIVNLMSVDAQRFMDLATYINMIWSAPLQVILALYLLWLNLGPSVLAGVAVMVLMVPVNAVMAMKTKTYQVAHMKSKDNRIKLMNEILNGIKVLKLYAWELAFKDKVLAIRQEELKVLKKSAYLSAVGTFTWVCTPFLVALCTFAVYVTIDENNILDAQTAFVSLALFNILRFPLNILPMVISSIVQASVSLKRLRIFLSHEELEPDSIERRPVKDGGGTNSITVRNATFTWARSDPPTLNGITFSIPEGALVAVVGQVGCGKSSLLSALLAEMDKVEGHVAIKGSVAYVPQQAWIQNDSLRENILFGCQLEEPYYRSVIQACALLPDLEILPSGDRTEIGEKGVNLSGGQKQRVSLARAVYSNADIYLFDDPLSAVDAHVGKHIFENVIGPKGMLKNKTRILVTHSMSYLPQVDVIIVMSGGKISEMGSYQELLARDGAFAEFLRTYASTEQEQDAEENGVTGVSGPGKEAKQMENGMLVTDSAGKQLQRQLSSSSSYSGDISRHHNSTAELQKAEAKKEETWKLMEADKAQTGQVKLSVYWDYMKAIGLFISFLSIFLFMCNHVSALASNYWLSLWTDDPIVNGTQEHTKVRLSVYGALGISQGIAVFGYSMAVSIGGILASRCLHVDLLHSILRSPMSFFERTPSGNLVNRFSKELDTVDSMIPEVIKMFMGSLFNVIGACIVILLATPIAAIIIPPLGLIYFFVQRFYVASSRQLKRLESVSRSPVYSHFNETLLGVSVIRAFEEQERFIHQSDLKVDENQKAYYPSIVANRWLAVRLECVGNCIVLFAALFAVISRHSLSAGLVGLSVSYSLQVTTYLNWLVRMSSEMETNIVAVERLKEYSETEKEAPWQIQETAPPSSWPQVGRVEFRNYCLRYREDLDFVLRHINVTINGGEKVGIVGRTGAGKSSLTLGLFRINESAEGEIIIDGINIAKIGLHDLRFKITIIPQDPVLFSGSLRMNLDPFSQYSDEEVWTSLELAHLKDFVSALPDKLDHECAEGGENLSVGQRQLVCLARALLRKTKILVLDEATAAVDLETDDLIQSTIRTQFEDCTVLTIAHRLNTIMDYTRVIVLDKGEIQEYGAPSDLLQQRGLFYSMAKDAGLV |  | 372 |
